Measurements as given in PMC10068178.

Target: α-synuclein aggregates (small fibrils, oligomeric/protofibrillary species) formed in the aggregation reaction (UniProt P37840)

diagnostic α-syn SAA on PD CSF, increase of the time to reach the fluorescence threshold of 5000 a.u. (TTT) against neat samples, HDL at 2X (~ 24%) and 5X the CSF physiological concentration: 55%
Substance: human serum high-density lipoprotein (HDL) (complex)
